B1: CHCHD3 (parent)
chain: YSGAYGASVSDEELKRRVAEELAL

Variants of: B1
Test: protein stability index of a GFP-peptide fusion (GPS, HEK-293T) (PSI 1-6); higher = more stable
Details: c terminus: a fixed tail appended
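Also: lentivirally expressed fusions sorted by FACS into six bins by GFP to DsRed ratio, PSI derived from sequencing read proportions per bin multiplied by bin number.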

Variant	protein stability index
Y1A	4.93
Y1C	3.63
Y1D	5.4
Y1F	2.71
Y1G	4.87
Y1H	4.99
Y1I	4.74
Y1K	3.73
Y1L	4.87
Y1M	5.2
Y1N	4.71
Y1Q	5.07
Y1R	4.63
Y1S	5.45
Y1T	4.34
S2C	2.48
S2D	5.1
S2E	4.78
S2F	3.45
S2G	3.62
S2H	1.38
S2I	2.17
S2K	4.35
S2L	2.88

Variant	protein stability index
S2M	3.24
S2N	3.63
S2P	3.22
S2Q	3.46
S2R	4.62
S2T	2.27
S2V	1.9
S2W	4.26
S2Y	4.05
G3A	2.94
G3C	2.73
G3D	5.41
G3E	4.87
G3F	3.05
G3H	4.1
G3I	4.29
G3K	3.17
G3L	4.33
G3M	3.81
G3N	4.18
G3P	3.78
G3Q	3.96
G3R	3.56
G3S	3.37

Variant	protein stability index
G3T	2.9
G3V	3.98
G3W	2.63
G3Y	3.4
A4C	2.64
A4D	4.64
A4E	3.31
A4F	1.95
A4G	2.27
A4H	2.84
A4I	3.21
A4K	2.63
A4L	2.7
A4M	2.59
A4N	2.97
A4P	4.24
A4Q	2.61
A4R	3.03
A4S	3.39
A4T	3.66
A4V	3.03
A4W	2.11
A4Y	2.15
Y5A	5.09

Variant	protein stability index
Y5C	2.75
Y5D	5.3
Y5E	5.32
Y5F	1.33
Y5G	4.92
Y5H	4.02
Y5I	4.44
Y5K	4.14
Y5L	4.86
Y5M	3.73
Y5N	4.55
Y5P	4.88
Y5Q	5.28
Y5R	4.59
Y5S	4.99
Y5T	5.01
Y5V	4.95
Y5W	2.4
G6A	1.84
G6C	2.22
G6D	4.67
G6E	4.05
G6F	2.09
G6H	2.3

Variant	protein stability index
G6I	2.12
G6K	2.06
G6L	2.06
G6M	2.4
G6N	3.36
G6P	2.48
G6Q	2.81
G6R	2.42
G6S	2.13
G6T	2.11
G6V	2.48
G6W	1.64
G6Y	1.9
A7C	1.72
A7D	4.27
A7E	4.3
A7F	2.58
A7G	3.43
A7H	2.98
A7I	2.71
A7K	2.38
A7L	2.42
A7M	2.94
A7N	3.61

Variant	protein stability index
A7P	2.94
A7Q	3.04
A7R	2.77
A7S	3.48
A7T	2.99
A7V	2.56
A7W	1.39
A7Y	2.61
S8C	2.04
S8D	4.18
S8E	3.77
S8F	2
S8G	3.1
S8H	2.98
S8I	2.08
S8K	3.2
S8L	1.42
S8M	3.52
S8N	3.22
S8P	2.07
S8Q	3.02
S8R	2.88
S8T	2.01
S8V	1.78

Variant	protein stability index
S8W	4.28
S8Y	2.07
V9A	3.3
V9E	4.28
V9F	2.67
V9G	3.06
V9H	2.77
V9I	2.95
V9K	2.57
V9M	2.7
V9N	3.35
V9P	3.13
V9Q	3.18
V9R	2.19
V9S	3.07
V9T	2.19
V9W	2.71
V9Y	1.94
S10D	3.35
S10E	3.58
S10F	2.64
S10G	2.51
S10H	2.98
S10I	2.69

Variant	protein stability index
S10K	2.46
S10L	2.8
S10M	2.86
S10N	2.4
S10P	2.6
S10Q	2.72
S10R	2.66
S10T	2.71
S10V	2.92
S10W	1.89
S10Y	2.14
D11A	2.79
D11C	2.39
D11E	1.55
D11F	2.27
D11G	2.01
D11H	2.08
D11I	2.29
D11K	2.49
D11L	2.57
D11M	3.01
D11N	2.37
D11P	1.7
D11Q	2.34

Variant	protein stability index
D11R	2.24
D11S	1.86
D11T	2.24
D11V	3.23
D11W	2.31
E12A	2.29
E12C	2.2
E12D	2.99
E12F	2.09
E12G	1.82
E12H	2.24
E12I	2.92
E12K	2.53
E12L	2.17
E12M	2.39
E12N	2.4
E12P	3.73
E12Q	2.09
E12R	2.59
E12S	2.09
E12T	2.71
E12V	2.37
E12W	3.11
E12Y	3.02

Variant	protein stability index
E13A	2.61
E13C	2.33
E13D	2.9
E13F	2.49
E13G	2.18
E13H	2.67
E13I	2.2
E13K	3.04
E13L	2.85
E13M	1.51
E13N	2.44
E13P	2.47
E13Q	2.3
E13R	2.26
E13S	2.26
E13T	2.66
E13V	2.38
E13W	2.56
E13Y	1.76
L14A	1.78
L14C	2.77
L14D	3.3
L14E	3.48
L14F	2.53

Variant	protein stability index
L14G	3.46
L14H	2.79
L14I	2.41
L14K	2.94
L14M	2.19
L14N	2.47
L14P	2.24
L14R	2.25
L14S	2.31
L14T	3.12
L14V	2.63
L14W	2.34
L14Y	3.56
K15A	2.99
K15C	3.2
K15D	3.38
K15E	3.33
K15F	2.11
K15G	2.58
K15H	2.69
K15I	2.5
K15L	2.52
K15M	2.61
K15N	2.19

Variant	protein stability index
K15P	2.29
K15Q	2.83
K15R	2.84
K15S	3.47
K15T	2.22
K15V	2.65
K15W	2.04
K15Y	2.72
R16A	2.34
R16C	1.92
R16D	3.66
R16E	2.46
R16F	2.3
R16G	2.92
R16H	2.45
R16I	2.11
R16K	2.65
R16L	2.75
R16M	2.74
R16N	2.65
R16P	2.55
R16Q	2.64
R16S	1.95
R16T	3.04

Variant	protein stability index
R16V	2.17
R16W	2.54
R16Y	2.19
R17A	2.57
R17C	2.06
R17D	2.54
R17E	3.17
R17F	2.12
R17G	2.36
R17H	2.4
R17I	2.4
R17K	2.31
R17L	2.76
R17M	1.94
R17N	2.61
R17P	2.64
R17Q	2.77
R17S	2.52
R17T	2.53
R17V	2.63
R17W	2.38
R17Y	2.33
V18A	2.42
V18C	2.76

Variant	protein stability index
V18D	2.54
V18E	2.59
V18F	2.64
V18H	2.75
V18I	2.86
V18K	2.38
V18L	2.93
V18M	2.09
V18N	2.73
V18P	2.58
V18Q	1.72
V18R	2.44
V18S	2.42
V18T	2.39
V18W	2.35
V18Y	2.09
A19C	2.67
A19D	2.84
A19E	3.04
A19F	2.54
A19G	3.1
A19H	3.24
